# Like-named read-outs stand apart in the source and are kept apart here.
# T1: ErmS (TlrA) rRNA adenine-N6 dimethyltransferase (Streptomyces fradiae, UniProt P45439 1-319)
# T1 sequence: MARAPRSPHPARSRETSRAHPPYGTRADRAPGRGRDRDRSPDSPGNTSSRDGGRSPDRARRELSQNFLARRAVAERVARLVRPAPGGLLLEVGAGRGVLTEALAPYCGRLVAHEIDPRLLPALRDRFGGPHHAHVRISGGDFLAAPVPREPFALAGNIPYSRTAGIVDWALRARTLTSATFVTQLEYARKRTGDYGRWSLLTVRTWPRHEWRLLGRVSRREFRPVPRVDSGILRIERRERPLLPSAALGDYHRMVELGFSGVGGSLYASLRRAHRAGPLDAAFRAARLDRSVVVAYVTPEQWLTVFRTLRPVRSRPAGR
# Columns and labels:
# [1] = molecular target: T1, ErmS (TlrA) rRNA adenine-N6 …; test: stopped-flow fluorescence
# [2] = molecular target: T1, ErmS (TlrA) rRNA adenine-N6 …; test: stopped-flow fluorescence; remark: listed apart in the source
Binder,binding result [1],binding result [2]
"GGCAAGACGGAAAGACCCCUAUCUGCC (structured_RNA, 2-aminopurine replaces A2058 (nt 11)) [2Ap2058]",binds,–
"GGCAAGACGGAAAGACCCCUAUCUGCC (structured_RNA, 2-aminopurine replaces A2054 (nt 7)) [2Ap2054]",–,binds

# From paper PMC9386465
